The values that follow come from the supplement of paper PMC9170038.

This data set has as its system K4 kissing-loop RNA reporter. The experiment in a line: apparent KD of K4 kissing-loop reporter; higher = weaker reporter binding. To be noted: Eterna round: R107. The method, then:
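RNA-MaP round R107: designed RNA switches with theophylline, tryptophan, arginine or FMN aptamers are transcribed on-chip within common flanks. They are titrated with a labelled K4 kissing-loop RNA reporter in RNA-MaP buffer (100 mM Tris pH 7.5, 80 mM KCl, 4 mM MgCl2), without ligand or with the indicated ligand. Median apparent KD per design.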

[1] abbreviates: input ligand: theophylline 20 uM.
The mark [2] stands for this setting: input ligand: tryptophan 2.4 mM.
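Further: bound reporter read as fluorescence of individual clusters on recovered sequencing chips by microscopy, with normalized cluster intensities fitted with a binding model.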

As for “AGGAUCCGUCGACAAAAGUCGACAUAAACCAAGGAUAUGACGAAAGUCAGAAGGUGGUCAUAAGGCCAGUGAUGUUGGUGGAUCC [FmnA 12 #SwitchBubble #K4Late]”, the “apparent KD of K4 kissing-loop reporter” value reads like this: (input ligand: FMN 200 uM) 927 nM; (input ligand: arginine 13.2 mM) 431 nM; (input ligand: none) 576 nM; under setting [1], 796 nM; under setting [2], 349 nM.
Take “AGGCACGAGCAAGGAUAUCGAGUAGAGUGAUGUUCUGCCUGGGUUGGCGCGUAAGGGCCUUCCCAGCGAGAAGGUGCUCGUGCCU [#2 Same State - FMN A Attempt #12 (HarryS)]”: the “apparent KD of K4 kissing-loop reporter” value by setting is: (input ligand: FMN 200 uM) 253 nM; (input ligand: arginine 13.2 mM) 681 nM; (input ligand: none) 939 nM; under setting [1], 677 nM; under setting [2], 660 nM.
As for “AGGCACGAGCAAGGAUAUCGAGUGGAGUGAUGUUCUGCCGACCCAGGACCGAAAGGUCCUGGGUCGCGAGAAGGUGCUCGUGCCU [#2 Same State - FMN A Attempt #8 (HarryS)]”, the “apparent KD of K4 kissing-loop reporter” value was 215 nM (input ligand: FMN 200 uM); 785 nM (input ligand: arginine 13.2 mM); 949 nM (input ligand: none); 568 nM under setting [1]; 711 nM under setting [2].
The like results for “AGGCCCGGCCGAAAGGCCGGGCCAAGAGAUACCAGCAGCGAAAGCUGCCCUUGGCAGCUCACUUAGUGAUGUUAAGAGAUAAAUG [SS Theo A Tesla 1.2]” were, in that order, 365 nM, 353 nM, 294 nM, 424 nM and 279 nM.
The matching figures for “AGGUACAAAAGUACCGCUAGAUCCACGGAAGGAGCGGCCGAAAGGCCAGGUAGGUCGCCGGGCAGUGAUGUUGCCGGAUCUAGCA [Omei KL Arginine A SS A v2]”: 194 nM, 171 nM, 200 nM, 185 nM and 169 nM.
On to “AGGUCCGAGCCCGUAAGGGCUCGGACCUGUUAGGAUAUGACGUUAUUCAGAAGGGAUGGGUGGAGUGAUGUUCCACCCGCAAGGG [#2 Same State - FMN A Attempt #10 (HarryS)]”, for which the “apparent KD of K4 kissing-loop reporter” value (input ligand: FMN 200 uM) is 98.8 nM; the “apparent KD of K4 kissing-loop reporter” value (input ligand: arginine 13.2 mM) is 102 nM; the “apparent KD of K4 kissing-loop reporter” value (input ligand: none) is 93.2 nM; the “apparent KD of K4 kissing-loop reporter” value under setting [1] was found to be 91.7 nM; the “apparent KD of K4 kissing-loop reporter” value under setting [2] came to 95.7 nM.
The like results for “AGUGAAGUUAGUGAUGUGUGAGUUUGGGAAGGAGCGCCGAGAACGGCAGGUAGGUCGCCCAGUGAUGUUGGUGUAAAGAUGAGAG [whbob_Ex_Arginine_A_2t121]” were, in that order, 275 nM, 184 nM, 239 nM, 232 nM and 208 nM.
For “AGUGAUGUAUGGCGGUUUGUCACUUAAAAUCAGGAUAUAUAAACAAAUAGAAGGGAUGGCGGAGUGAUGUUCCGCCGGCCGCCAU [FMN A Exl V1]”, the “apparent KD of K4 kissing-loop reporter” value by setting is: (input ligand: FMN 200 uM) 171 nM; (input ligand: arginine 13.2 mM) 145 nM; (input ligand: none) 177 nM; under setting [1], 179 nM; under setting [2], 162 nM.
As for “AGUGAUGUGGGAAGGAGCGCUACAAGACUUCAGUGAUGUUGAAGUGAUGAUUUAGUGUUGUAGCAGGUAGGUCGCCUAGAUGUUA [KL-XARG-B9]”, the “apparent KD of K4 kissing-loop reporter” value is, setting by setting: (input ligand: FMN 200 uM) 60.9 nM; (input ligand: arginine 13.2 mM) 27 nM; (input ligand: none) 44.9 nM; under setting [1], 36.2 nM; under setting [2], 39.1 nM.
Turning to “AGUGAUGUGGGAAGGAGCGGUACAUGACUUCAGUGAUGUUGAAGUGAUGAUUUAGUGAUGUGCCAGGUAGGUCGCCUAGAUGUUA [KL-XARG-B7]”, the “apparent KD of K4 kissing-loop reporter” value by setting is: (input ligand: FMN 200 uM) 79.8 nM; (input ligand: arginine 13.2 mM) 36.7 nM; (input ligand: none) 68.1 nM; under setting [1], 41.8 nM; under setting [2], 51 nM.
Turning to “AGUGCACUGUCAGGAUAUAUACAGUGAUGUUGUGUAUGUCAGCAAGUCAAAGACUUGCUGUUCUGUGUAGAAGGGACUGUGUACA [Omei KL FMN B Exc A v3]”, the “apparent KD of K4 kissing-loop reporter” value reads like this: (input ligand: FMN 200 uM) 911 nM; (input ligand: arginine 13.2 mM) 457 nM; (input ligand: none) 450 nM; under setting [1], 467 nM; under setting [2], 426 nM.
Turning to “AGUGCCUGCCUUAGCCUUCCCAUCAACUUCCGAGGACCGGUACGGCCGCCACUCGGCCAUCGGGCUAGUGAUGUUACCUGGUGGA [theeternabot_sameState_KL_Trp_A_50]”, the “apparent KD of K4 kissing-loop reporter” value runs as follows: (input ligand: FMN 200 uM) 337 nM; (input ligand: arginine 13.2 mM) 302 nM; (input ligand: none) 327 nM; under setting [1], 320 nM; under setting [2], 224 nM.
As to “AGUGUUAGGUUAGAUACCAGCCGUUCGUGAAUAAUCCUCGAACCGCCAGUGAUGUUGGCAGGCCCUUGGCAGCUAACAGAACAGA [Maxeusla]”, the “apparent KD of K4 kissing-loop reporter” value came out at 243 nM (input ligand: FMN 200 uM); 216 nM (input ligand: arginine 13.2 mM); 207 nM (input ligand: none); 170 nM under setting [1]; 223 nM under setting [2].
Consider “AGUUCCUCUGUCGAUACCAGCUUCAGUUGGCGGCCAGUGAUGUUGGUAUCGCCGAUGCCAAGCCCUUGGCAGCGACAUGAGACCC [Lausso]”, for which the “apparent KD of K4 kissing-loop reporter” value by setting is: (input ligand: FMN 200 uM) 188 nM; (input ligand: arginine 13.2 mM) 187 nM; (input ligand: none) 169 nM; under setting [1], 111 nM; under setting [2], 197 nM.
As for “AUAAACUUGCAGUGAUGUUGCAAGUGAGACUAGGAUAUCAGGAAGCUGAGAAGGAGUCAUCUCCUUCAGACAUCACUAUGAAGGA [whbob_SS_FMNA__2th179]”, the “apparent KD of K4 kissing-loop reporter” value turned out to be 334 nM (input ligand: FMN 200 uM); 191 nM (input ligand: arginine 13.2 mM); 251 nM (input ligand: none); 205 nM under setting [1]; 232 nM under setting [2].
The like results for “AUAGAGAAGUGGCACCCUCACUAAAACAGUCGAGGACCGGUACGGCCGCCACUCGCGCGCUUUAGUGAUGUUAAAGAUGUGAAAA” were, in that order, 223 nM, 209 nM, 223 nM, 508 nM and 215 nM.
Turning to “AUCUAGAUGCGAAGGAGCGCCUCAACGCGCUAUCUAUGGAGUGAUGUUCCAACGUAUGAGAGGCAGGUAGGUCGCGCAUCUAGAA [Arg B Ex t1]”, the “apparent KD of K4 kissing-loop reporter” value was found to be 129 nM (input ligand: FMN 200 uM); 113 nM (input ligand: arginine 13.2 mM); 132 nM (input ligand: none); 117 nM under setting [1]; 115 nM under setting [2].
For the sequence “AUGCGCGUGCGAUGUAAAUCGCACGCGCAUCGAGGACCGGUACGGCCGCCACUCGCUCGCGCCGAGUGAUGUUCGGCCGGCGAAC [#2 Same State - Tryptophan A Attempt #5 (HarryS)]”, the “apparent KD of K4 kissing-loop reporter” value (input ligand: FMN 200 uM) was found to be 442 nM; the “apparent KD of K4 kissing-loop reporter” value (input ligand: arginine 13.2 mM) was 278 nM; the “apparent KD of K4 kissing-loop reporter” value (input ligand: none) was 527 nM; the “apparent KD of K4 kissing-loop reporter” value under setting [1] came to 454 nM; the “apparent KD of K4 kissing-loop reporter” value under setting [2] amounted to 476 nM.
Consider “AUGGUGGAUCAGUGAUGUUGGUGGAGUACGUAGGAUAUGAGUGAUGUUAGAAGGAUGGGAGUGAUGUUCCAGGUGGUUGUGUUGU [KL-SSFMN-A1]”, for which the “apparent KD of K4 kissing-loop reporter” value reads like this: (input ligand: FMN 200 uM) 557 nM; (input ligand: arginine 13.2 mM) 364 nM; (input ligand: none) 652 nM; under setting [1], 507 nM; under setting [2], 492 nM.
As to “AUUAACCUUUUAGCUAUAUUUUUAUGUGAUACCAGACAUGGCAUAGUCCCUUGGCAGCACAUUAUAUUUACGAGUGAUGUUCGAA [JR_SSTheophyA_Sub026]”, the “apparent KD of K4 kissing-loop reporter” value is, setting by setting: (input ligand: FMN 200 uM) 243 nM; (input ligand: arginine 13.2 mM) 250 nM; (input ligand: none) 261 nM; under setting [1], 271 nM; under setting [2], 194 nM.
In the case of “AUUAAUUUCAGAGGAUAUCGUUAUUUUUUAUAUUUUAUUCAUUUAUGCAGUGAUGUUGCUAUUAAUCGAGAAGGCUGAUUUAUAA [JR_ExcFMNB_Sub003]”, the “apparent KD of K4 kissing-loop reporter” value stood at 85.5 nM (input ligand: FMN 200 uM); 114 nM (input ligand: arginine 13.2 mM); 47.1 nM (input ligand: none); 120 nM under setting [1]; 49.4 nM under setting [2].
